# Results from US20130011412A1 (Genentech, published 2013).
# Substitutions are numbered along the chain they refer to. Names may count otherwise.
# T1: recombinant human lymphotoxin-α homotrimer (human LTα3) (human, UniProt P01374 35-205)
# T1 construct: Coated on plates in the ELISAs; also called rhLTα; lymphotoxin-α3 trimer
# T1 sequence (looked up): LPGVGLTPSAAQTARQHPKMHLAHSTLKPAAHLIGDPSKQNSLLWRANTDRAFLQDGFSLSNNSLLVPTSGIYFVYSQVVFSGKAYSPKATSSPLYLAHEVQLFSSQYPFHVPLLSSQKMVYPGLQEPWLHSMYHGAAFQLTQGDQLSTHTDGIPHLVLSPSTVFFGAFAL
# T2: human cell-surface LTαβ complex (LTα complexed with LTβ on the cell surface) (human, UniProt P01374 35-205; Q06643 1-244)
# T2 construct: whole, on cells; also called human LTαβ
# T2 sequence (looked up) 1: T1 sequence (looked up)
# T2 sequence (looked up) 2: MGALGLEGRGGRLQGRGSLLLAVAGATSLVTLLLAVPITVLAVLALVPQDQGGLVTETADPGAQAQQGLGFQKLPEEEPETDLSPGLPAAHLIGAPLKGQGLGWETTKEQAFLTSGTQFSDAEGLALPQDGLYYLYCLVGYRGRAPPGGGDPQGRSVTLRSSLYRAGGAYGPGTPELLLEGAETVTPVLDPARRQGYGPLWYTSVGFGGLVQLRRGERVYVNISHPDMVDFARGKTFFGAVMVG
# T3: murine cell-surface LTαβ complex on transfected SVT2 cells (murine, UniProt P09225 34-202; P41155 1-306)
# T3 construct: whole, on cells; also called murine LTαβ
# T3 sequence (looked up) 1: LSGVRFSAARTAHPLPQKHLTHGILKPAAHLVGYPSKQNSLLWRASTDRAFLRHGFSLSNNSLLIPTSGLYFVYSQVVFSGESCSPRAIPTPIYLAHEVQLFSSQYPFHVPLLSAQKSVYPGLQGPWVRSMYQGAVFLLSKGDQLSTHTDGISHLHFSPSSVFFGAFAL
# T3 sequence (looked up) 2: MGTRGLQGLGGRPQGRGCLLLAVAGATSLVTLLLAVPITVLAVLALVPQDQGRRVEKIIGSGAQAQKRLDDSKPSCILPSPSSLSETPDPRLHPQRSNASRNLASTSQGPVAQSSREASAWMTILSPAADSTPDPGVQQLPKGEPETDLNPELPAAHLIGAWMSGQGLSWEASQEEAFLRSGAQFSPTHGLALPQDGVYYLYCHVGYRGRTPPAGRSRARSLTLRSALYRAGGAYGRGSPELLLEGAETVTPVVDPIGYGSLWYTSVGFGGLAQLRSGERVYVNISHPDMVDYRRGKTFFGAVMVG
# B1: chimeric anti-LTα antibody 3F12 (original chimera) (antibody, human IgG1, kappa, V domains shown)
# VH: QGQLQQSGAELMKPGASVKISCKATGYTFSSYWIEWVKQRPGHGLEWIGEISPGSGSTNYNEEFKGKATFTADKSSNTAYIQLSSLSTSEDSAVYYCADGYHGYWGQGTTLTVSS
# VL: DIVMSQSPSSLAVSVGEKVTMSCKSSQSLLYSTNQKNFLAWYQQKPGQSPKLLIYWASTRDSGVPDRFTGSGSGTDFTLTISSVKAEDLAVYYCQQYYSYPRTFGGGTKLEIKR
# notes: Murine variable domains on human C kappa and IgG1; also called 3F12 chimera; chimeric 3F12
# B2: humanized 2C8.v2 (antibody, IgG1, V domains shown)
# VH: EVQLVESGGGLVQPGGSLRLSCAASGYTFTSYVIHWVRQAPGKGLEWVGYNNPYNDGTNYNEKFKGRATISSDKSKNTAYLQMNSLRAEDTAVYYCSRPTMLPWFAYWGQGTLVTVSS
# VL: DIQMTQSPSSLSASVGDRVTITCRASQAVSSAVAWYQQKPGKAPKLQIYSASHRYTGVPSRFSGSGSGTDFTLTISSLQPEDFATYYCQQHYSTPWTFGQGTKVEIKR
# notes: also called Version 2
# B3: humanized 2C8.v12 (antibody, V domains shown)
# VH: B2 VH with A68F
# VL: B2 VL with Q47L
# notes: Human kappa / IgG1; also called Version 12; copies: 2 + 2
# B4: phage-displayed 2C8.v2 Fab, wild-type phagemid clone (Fab, V domains shown)
# VH: B2 VH
# VL: B2 VL
# notes: also called wild-type 2C8.v2
# B5: phage-displayed 2C8 Fab clone C12 (Fab, V domains shown)
# VH: B2 VH
# VL: B2 VL with Q90E
# B6: phage-displayed 2C8 Fab clone G2 (Fab, V domains shown)
# VH: B2 VH
# VL: B2 VL with H91Y
# B7: phage-displayed 2C8 Fab clone H9 (Fab, V domains shown)
# VH: B2 VH
# VL: B2 VL with S93Y
# B8: phage-displayed 2C8 Fab clone G12 (Fab, V domains shown)
# VH: B2 VH
# VL: B2 VL with Q90K, H91T, Y92F
# B9: humanized 2C8.v7 (antibody, V domains shown)
# VH: B2 VH
# VL: B2 VL with Q47L
# notes: Human kappa / IgG1; copies: 2 + 2
# B10: phage-displayed 2C8 Fab clone D8 (Fab, V domains shown)
# VH: B2 VH
# VL: B2 VL with H91F, T94V
# B11: phage-displayed 2C8 Fab clone G7 (Fab, V domains shown)
# VH: B2 VH
# VL: B2 VL with Q90E, H91N
# notes: also called 2C8 clone G7
# B12: phage-displayed 2C8 Fab clone H6 (Fab, V domains shown)
# VH: B2 VH
# VL: B2 VL with Q90E, H91V
# notes: also called 2C8 clone H6
# B13: LTbR.huIgG1 (Fc fusion, human, UniProt P36941 31-227, looked up)
# receptor-Fc fusion chain: QAVPPYASENQTCRDQEKEYYEPQHRICCSRCPPGTYVSAKCSRIRDTVCATCAENSYNEHWNYLTICQLCRPCDPVMGLEEIAPCTSKRKTQCRCQPGMFCAAWALECTHCELLSDCPPGTEAELKDEVGKGNNHCVPCKAGHFQNTSSPSARCQPHTRCENQGLVEAAPGTAQSDTTCKNPLEPLPPEMSGTMLM
# notes: receptor portion of an Fc fusion; also called LTβ-receptor.huIgG1; human LTβR.huIgG1
# B14: chimeric anti-LTα antibody 2C8 (antibody, human IgG1, kappa, V domains shown)
# VH: EVQLQQSGPELVKPGASVKLSCKASGYTFTSYVIHWVKQKPGQGLEWIGYNNPYNDGTNYNEKFKGKATLTSDKSSSTAYMELSSLTSEDSAVYYCSRPTMLPWFAYWGQGTTLTVSA
# VL: DIVMTQSHKFMSTSVGDRVSITCKASQAVSSAVAWYQQKPGQSPKLQIYSASHRYTGVPDRFTGSGSGTDFTFTISSVQAEDLAVYYCQQHYSTPWTFGGGTKVEIKR
# notes: Murine variable domains on human kappa and human IgG1; also called 2C8 chimera; 2C8.chimera
# B15: LTbR.muIgG2a (Fc fusion, mouse, UniProt P50284 31-223, looked up)
# receptor-Fc fusion chain: QLVPPYRIENQTCWDQDKEYYEPMHDVCCSRCPPGEFVFAVCSRSQDTVCKTCPHNSYNEHWNHLSTCQLCRPCDIVLGFEEVAPCTSDRKAECRCQPGMSCVYLDNECVHCEEERLVLCQPGTEAEVTDEIMDTDVNCVPCKPGHFQNTSSPRARCQPHTRCEIQGLVEAAPGTSYSDTICKNPPEPGAMLL
# notes: receptor portion of an Fc fusion; also called LTβ-receptor murine IgG2a; muLTβR.IgG2a
# B16: humanized 3F12.v2 (antibody, IgG1, name in Kabat numbering, V domains shown)
# VH: EVQLVESGGGLVQPGGSLRLSCAASGYTFSSYWIEWVRQAPGKGLEWVGEISPGSGSTNYNEEFKGRATFSADNSKNTLYLQMNSLRAEDTAVYYCADGYHGYWGQGTLVTVSS
# VL: DIQMTQSPSSLSASVGDRVTITCKSSQSLLYSTNQKNFLAWYQQKPGKAPKLLIYWASTRDSGVPSRFSGSGSGTDFTLTISSLQPEDFATYYCQQYYSYPRTFGQGTKVEIKR
# notes: Built back from 3F12.v5; human kappa / IgG1 constant domains; also called I69F
# B17: 3F12 version 31 (3F12.v5 with E62A, CDR-H2) (antibody, IgG1, V domains shown)
# VH: B16 VH with E63A, L79A
# VL: DIQMTQSPSSLSASVGDRVTITCKSSQSLLYSTNQKNFLAWYQQKPGKAPKLLIYWASTRDSGVPSRFSGSGSGTDFTLTISSLQPEDFATYYCQQYYSYPRTFGQGTKVEIK
# notes: Alanine-scan variant of 3F12.v5; human kappa / IgG1
# B18: humanized 3F12.v4 (antibody, IgG1, name in Kabat numbering, V domains shown)
# VH: B16 VH with F70I, L79A
# VL: B16 VL
# notes: Built back from 3F12.v5; human kappa / IgG1 constant domains; also called L78A
# B19: humanized 3F12.v5 (antibody, IgG1, V domains shown)
# VH: B16 VH with L79A
# VL: B16 VL
# notes: Human kappa / IgG1 constant domains (vectors of humanized 2G7 version 5); also called version 5
# Experiments:
# [1] = target: T1, recombinant human lymphotoxin-α …; assay: blocking ELISA: biotinylated human LTα3 preincubated with the antibody, then captured on coated TNFRII.huIgG1 (m10)
# Procedure: The unabsorbed solution was aspirated from the wells. Biotinylated LTα3 (murine or human) was captured and detected with streptavidin-horse radish peroxidase (HRP). […] Each well was washed with PBS/0.05% TWEEN™ 20 surfactant, and bound HRP was measured with a solution of tetramethylbenzidine (TMB)/H₂O₂. After 15 minutes, the reaction was quenched by the addition of 100 μl of 1M phosphoric acid to each well. The absorbance at 450 nm was read with a reference wavelength of 650 nm.
# [2] = target: T1, recombinant human lymphotoxin-α …; assay: plate ELISA on coated LTα
# [3] = target: T1, recombinant human lymphotoxin-α …; assay: direct ELISA on plate-coated human LTα3 (1 µg/ml)
# Procedure: Microtiter wells were coated with 1 μg/ml human LTα3 in 50 mM carbonate buffer solution (100 μl/well) overnight. The unabsorbed solution was decanted from the wells. Wells were blocked with 150 μL PBS containing 5 mg/ml bovine serum albumin (PBS-BSA) for 1-2 hour. […] 100 μL of biotin-labeled rat anti-mouse IgG in PBS-BSA buffer was then added to each well and incubated for one hour. The plate was then washed with PBS/0.05% TWEEN™-20 surfactant, and streptavidin-horseradish peroxidase (SA-HRP) was added for 30 minutes to each well. Each well was washed with PBS/0.05% TWEEN™-20 surfactant, and bound HRP was measured with a solution of tetramethylbenzidine (TMB)/H₂O₂. After 15 minutes, the reaction was quenched by the addition of 100 μl of 1M phosphoric acid. The absorbance at 450 nm was read with a reference wavelength of 650 nm.
# [4] = target: T1, recombinant human lymphotoxin-α …; assay: BIACORE (rhLTα)
# [5] = target: T1, recombinant human lymphotoxin-α …; assay: plate ELISA on coated human LTα
# [6] = target: T1, recombinant human lymphotoxin-α …; assay: phage competitive ELISA: rhLTα in solution competes with plate-coated LTα
# Procedure: For the first round, phage were captured for 2 hours against 2 μg/ml plate-coated LTα at ambient temperature. The second and third rounds of selection were performed at ambient temperature by capturing phage for 30 minutes with 2 nM biotinylated LTα in solution phase, followed by capture on neutravidin-coated plates. The highest affinity clone was identified using a competitive ELISA. Constant concentrations of phage clones (normalized by solid-phase LTα binding OD) were incubated with increasing concentrations of LTα (0-50 nM) in solution before capture on a plate coated with 2 μg/ml LTα.
# [7] = target: T2, human cell-surface LTαβ complex (LTα …); assay: FACS titration on human Th1 cells, Alexa Fluor 647 conjugates
# Procedure: Cells were washed, aspirated, and re-suspended in PBS with 2% FBS. Cells were analyzed on a FACSCALIBUR™ (dual laser) using […]™ software, and results analyzed on a FLOWJO™ analyzer (Treestar).
# [8] = target: T3, murine cell-surface LTαβ complex on …; assay: FACS on SVT2 cells stably expressing murine LTαβ, reagents conjugated to ALEXA-647
# Procedure: For murine LTαβ, SVT2 cells were transfected with full-length murine LTα and murine LTαβ (murine LTα sequence GenBank Ref NM_{—}010735; murine LTβ sequence GenBank Ref NM_{—}008518) to generate stable murine LTαβ-expressing cell lines. […] Cells were washed, aspirated, and resuspended in PBS with 2% FBS. Cells were analyzed on a FACSCALIBUR™ (dual laser) using […]™ software, and results analyzed on a FLOWJO™ analyzer (Treestar).
# [9] = target: T1, recombinant human lymphotoxin-α …; assay: plate-based ELISA against LTα
# [10] = target: T1, recombinant human lymphotoxin-α …; assay: plate ELISA on coated LTα; remark: listed apart in the source
binder,measurement,setting,value
B1,IC50 (read off the curve),[1],~20 nM
same,Relative binding,[2],1 relative to the original chimera
same,EC50 (read off the curve),[3],~0.3 nM
B2,Kd,[4],0.2 nM
same,kon,[4],600000 M⁻¹ s⁻¹
same,ELISA IC50 ratio,[5],1.7 ratio
B3,Kd,[4],0.07 nM
same,ELISA IC50 ratio,[5],1 ratio
B4,IC50,[6],3.14 nM
B5,IC50,[6],3.41 nM
B6,IC50,[6],4.51 nM
B7,IC50,[6],3.8 nM
B8,IC50,[6],5.34 nM
B9,Kd,[4],0.4 nM
same,ELISA IC50 ratio,[5],1.2 ratio
B10,IC50,[6],137 nM
B11,IC50,[6],0.57 nM
B12,IC50,[6],1.1 nM
B13,EC50 (read off the curve),[7],~0.05 µg/mL
B14,Kd,[4],0.6 nM
same,ELISA IC50 ratio,[5],1 ratio
same,IC50 (read off the curve),[1],~5 nM
same,EC50 (read off the curve),[3],~0.1 nM
B15,binding result,[8],binds
B16,Relative binding,[2],> 1000 fold down from the chimera
B17,relative binding (EC50 of the variant / EC50 of version 5),[9],1.93 ratio
B18,Relative binding,[2],> 500 fold down from the chimera
B19,fold weaker binding than the chimera,[10],~5 fold
